Measurements from paper PMC11359734, “Two enzymes contribute to citrate production in the mitochondrion of Toxoplasma gondii” (The Journal of Biological Chemistry, 2024).

B1: TgCS1 (Toxoplasma gondii) (protein)
chain: SARSVCGGLSNAEARAAVEAALDALAEKVQEAAEPKRELLKTLRKEHGTVVISEATLSTVCGGMRGLTAILTETSTLHAEKGILYRGLTINECLAKLPRMHKEEYPAVEGLIWFLMTGSIPTVNEVELLSNALYALSLSSASSSPSAPFIPPHVGKVLDAVPPSTHPMTQLVMAAAALQPTSELAQAYRHKTVSRHDLWKPALADALSLIAKNAVMAARIFRRSFRDGQEIDPAANFGHMMGFNSKEHQELFRLYLFLHADHEGGNVSAHAAHVVGSALSDPFLAFSAGMAGLAGPLHGLANQECLNWLRDVHCKLNGAAPTRENVKKIAEDTLASGRVIPGYGHAVLRVTDPRFTAQREFALKYLKDDELFQLLNVAYNTIPDVLLATGKVKNPYPNVDCHSGVLLQHFGITEADFYTVLFGVSRAIGIACQYVWDRILGLPIERPKSTTLDLLKAACVERKGN
notes: residues 95-559 (N-terminal part removed), His-tagged fusion from pESUMO vector, expressed in E. coli Transetta (DE3), Ni2+ column
B2: TgPrpC (Toxoplasma gondii) (protein)
chain: QSGVHVPTAPSDCAFSPDWRSVCCSQTFSAVSTTTLERQITKENSKNGIECLNAESENCFGFALLLRHRCGLHSGSVDPPLCSLTRRKPTWQRQTTAFLSSTMARQPLETSYEQRKDSEFSPGLEGVVAGESAISSVGPASLAGLTYRGYRIDDLTEKATFEEVVFLLLHDRLPTKQELDAQHQELVLARRLPPSLKACLEYFPKNSHPMDVVRTGCSMMGMLEQENAPPDQQAKIGLRLIGMYSSMLLYWYHYAHHGIRICEETDPADSVAAHFLKLLNQHSSGPHPLEVKAVDISLILYAEHDFNASTFAARVTAATRSDIYSAICSAIGTLKGPLHGGANEAAIMFLRKLRDMQQADQELESIWRHHERVMGFGHRLYKEGDPRSHIMMKVALDLAQNAPKKDPNLVQIAQHIEERMEKEKHLPANVDFPCALAYHQCGIPTDLYTPLFVLARTAGWTAHIMEQRANNRLIRPVSHYVGPPVRPFPSFEEREKLANPSEQSRSR
notes: residues 113-619 (N-terminal part removed), His-tagged fusion from pESUMO vector, expressed in E. coli Transetta (DE3), Ni2+ column

How the values were obtained:
[1] = substrate: CC(=O)SCCNC(=O)CCNC(=O)[C@H](O)C(C)(C)COP(=O)(O)OP(=O)(O)OC[C@H]1O[C@@H](n2cnc3c(N)ncnc32)[C@H](O)[C@@H]1OP(=O)(O)O; experiment: citrate synthase kit, OD412, 96-well plate; format: biochemical, Toxoplasma gondii; conditions: co-substrate oxaloacetate
[2] = substrate: O=C(O)CC(=O)C(=O)O; experiment: citrate synthase kit, OD412, 96-well plate; format: biochemical, Toxoplasma gondii; conditions: co-substrate acetyl-CoA

| Protein | Km [1] | Km [2] |
| --- | --- | --- |
| B1 | 0.4693 µM | 1.423 µM |
| B2 | 1.169 µM | 1.661 µM |
